{"source": "patent US20220411536A1", "about": "(NUMAB THERAPEUTICS, published 2022)", "binders": {"B1": {"name": "PRO1992 (multispecific antibody)", "chain 1": "DVVMTQSPSSLSASVGDRVTITCQASQIISSRSAWYQQKPGQPPKLLIYQASKLASGVPSRFSGSGSGTDFTLTISSLQPEDFATYYCQCTYIDSNFGAFGTGTKLTVLGGGGGSGGGGSGGGGSGGGGSEVQLVESGGGLVQPGGSLRLSCAASGFSFSSSYWICWVRQAPGKGLEWVGCVFTGDGTTYYASWAKGRFTISRDNSKNTVYLQMNSLRAEDTATYFCARPVSVYYYGMDLWGQGTLVTVSSGGGGSGGGGSDIQMTQSPSSLSASVGDRVTITCKASQDVSIGVAWYQQKPGKAPKLLIYSASYRYTGVPSRFSGSGSGTDFTLTISSLQPEDFATYYCQQYYIYPYTFGCGTKVTVLGGGSGGSDIQMTQSPSSLSASVGDRVTITCQASQSINDYLAWYQQKPGKAPKLLIYKASTLASGVPSRFSGSGSGTDFTLTISSLQPEDFATYYCQAAYIITDIDNVFGTGTKVTVLG", "chain 2": "DIQMTQSPSSLSASVGDRVTITCQASQSISNRLAWYQQKPGKAPKLLIYSASTLASGVPSRFSGSGSGTDFTLTISSLQPEDFATYYCQSTYYGNDGNAFGCGTKVTVLGGGGGSGGGGSGGGGSGGGGSEVQLVESGGGLVQPGGSLRLSCAASGFSFSANYYPCWVRQAPGKCLEWIGCIYGGSSDITYDANWTKGRFTISRDNSKNTVYLQMNSLRAEDTAVYYCARSAWYSGWGGDLWGQGTLVTVSSGGGGSGGGGSQVQLQESGPGLVKPSETLSLTCKVSGFSFSSGYDMCWIRQPPGKGLEWIGCVVAGSVDITYYASWAKGRVTISVDSSKNQFSLKLSSVTAADTAVYYCARKDAYSDAFNLWGQGTLVTVSSGGGSGGGSEVQLVESGGGLVQPGGSLRLSCAASGFTFTDYTMDWVRQAPGKCLEWVADVNPNSGGSIYNQRFKGRFTLSVDRSKNTLYLQMNSLRAEDTAVYYCARNLGPSFYFDYWGQGTLVTVSS"}, "B2": {"name": "PRO1494 (scFv, V domains shown)", "VH": "QVQLQESGPGLVKPSETLSLTCKVSGFSFSSGYDMCWIRQPPGKGLEWIGCVVAGSVDITYYASWAKGRVTISVDSSKNQFSLKLSSVTAADTAVYYCARKDAASDAFNLWGQGTLVTVSS", "VL": "DIQMTQSPSSLSASVGDRVTITCQASQSINDYLAWYQQKPGKAPKLLIYKASTLASGVPSRFSGSGSGTDFTLTISSLQPEDFATYYCQAGYIITDIDNVFGTGTKVTVLG"}, "B3": {"name": "PRO1814 (multispecific antibody)", "chain": "DIQMTQSPSSLSASVGDRVTITCQASQSINDYLAWYQQKPGKAPKLLIYKASTLASGVPSRFSGSGSGTDFTLTISSLQPEDFATYYCQAAYIITDIDNVFGTGTKVTVLGGGGGSEVQLVESGGGLVQPGGSLRLSCAASGFTFTDYTMDWVRQAPGKGLEWVADVNPNSGGSIYNQRFKGRFTLSVDRSKNTLYLQMNSLRAEDTAVYYCARNLGPSFYFDYWGQGTLVTVSSGGGGSGGGGSGGGGSGGGGSDIQMTQSPSSLSASVGDRVTITCKASQDVSIGVAWYQQKPGKAPKLLIYSASYRYTGVPSRFSGSGSGTDFTLTISSLQPEDFATYYCQQYYIYPYTFGTGTKVTVLGGGGGSQVQLQESGPGLVKPSETLSLTCKVSGFSFSSGYDMCWIRQPPGKGLEWIGCVVAGSVDITYYASWAKGRVTISVDSSKNQFSLKLSSVTAADTAVYYCARKDAYSDAFNLWGQGTLVTVSSGGGGSGGGGSIQMTQSPSSLSASVGDRVTITCQSSESVYSNNQLSWYQQKPGQPPKLLIYDASDLASGVPSRFSGSGSGTDFTLTISSLQPEDFATYYCAGGFSSSSDTAFGGGTKLTVLGGGGGSGGGGSGGGGSGGGGSEVQLVESGGGLVQPGGSLRLSCAASGFSLSSNAMGWVRQAPGKGLEYIGIISVGGFTYYASWAKGRFTISRDNSKNTVYLQMNSLRAEDTATYFCARDRHGGDSSGAFYLWGQGTLVTVSS", "notes": "also called PR01814"}}, "key": {"[1]": {"target": "CD137 on transgenic NF-kB Jurkat reporter cells (Homo sapiens (Human), UniProt Q07011 24-255)", "assay": "cell-based or functional assay"}, "[2]": {"target": "T1, human PD-L1 expressed on cells (CHO-PD-L1, HCC1954, HCC827) (human, UniProt Q9NZQ7 19-290)", "T1 construct": "whole, on cells; also called hPD-L1; PD-L1 expressing cells", "assay": "flow cytometry with human SA, inhibition of PD-1 binding to HCC1954 cells"}, "[3]": {"target": "T1, human PD-L1 expressed on cells …", "assay": "cell-based or functional assay"}, "[4]": {"target": "T1, human PD-L1 expressed on cells …", "assay": "flow cytometry with human SA, inhibition of PD-1 binding to HCC827 cells"}, "[5]": {"target": "T1, human PD-L1 expressed on cells …", "assay": "flow cytometry with human SA, inhibition of PD-1 binding to HCC1954 cells", "remark": "listed apart in the source"}}}
{"binder": "B1", "values": [{"measurement": "EC50, NFkB reporter gene assay, HCC827 cells", "setting": "[1]", "value": 252, "unit": "pM"}, {"measurement": "EC50, NFkB reporter gene assay, HCC1954 cells", "setting": "[1]", "value": 82.4, "unit": "pM"}, {"measurement": "IC50", "setting": "[2]", "value": 0.592, "unit": "µg/mL"}]}
{"binder": "B2", "values": [{"measurement": "IC50, neutralization of PD-L1 in NF-AT potency assay", "setting": "[3]", "value": 36800, "unit": "ng/mL"}]}
{"binder": "B3", "values": [{"measurement": "IC50", "setting": "[4]", "value": 53.8, "unit": "µg/mL"}, {"measurement": "IC50", "setting": "[5]", "value": 0.0525, "unit": "µg/mL"}]}
